{"source": "patent EP4663199A1", "binders": {"B1": {"name": "tag moiety … (SEQ ID NO:2) (peptide)", "peptide": "FIGITELKK", "modifications": "not checked"}}, "target": "bispecific binding molecule comprising a first specific binding molecule (comprising SEQ ID NO:265 a)", "sequence (chain, as listed by the source, chain 1 of 3)": "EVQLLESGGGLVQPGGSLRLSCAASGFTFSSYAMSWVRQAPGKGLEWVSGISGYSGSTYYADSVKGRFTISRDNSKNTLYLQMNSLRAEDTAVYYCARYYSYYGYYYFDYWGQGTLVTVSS", "sequence (chain, as listed by the source, chain 2 of 3)": "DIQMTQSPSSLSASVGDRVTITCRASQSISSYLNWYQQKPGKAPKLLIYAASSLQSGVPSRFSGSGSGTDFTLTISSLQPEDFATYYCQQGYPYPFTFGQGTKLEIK", "sequence (chain, as listed by the source, chain 3 of 3)": "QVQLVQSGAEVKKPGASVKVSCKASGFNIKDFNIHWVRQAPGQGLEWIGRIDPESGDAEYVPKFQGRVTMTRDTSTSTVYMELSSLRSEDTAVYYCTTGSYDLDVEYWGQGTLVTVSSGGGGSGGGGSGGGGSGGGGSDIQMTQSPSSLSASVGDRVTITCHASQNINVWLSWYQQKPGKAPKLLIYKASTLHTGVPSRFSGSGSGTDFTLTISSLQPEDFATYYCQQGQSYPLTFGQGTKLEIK"}
{"binder": "B1", "values": [{"measurement": "Kd", "value": 9.4, "unit": "pM"}]}
